The nature of the series: yeast display, Sf9 membrane polyspecificity reagent, FACS + sequencing; frameworks hold sequencing errors. Put shortly:
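Polyreactivity labels are assigned by the sorting gate from which each nanobody was recovered. The gates were low and high (top ~1%), set on anti-HA fluorescence for expression and streptavidin fluorescence for reagent binding. Before sorting, galactose-induced (36–48 hours) yeast display cells were stained for 1 hour at 4 °C with 10% biotinylated, detergent-solubilized Sf9 membrane reagent.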
“QVQLVESGGGLVQAGGSLRLSCAASGRTLSYYAMGWYRQAPGKERELVAAIRHSAGSTYYADSVKGRFTISRDTAKNTVYLQMNSLKPEDTAVYYCAKKYYGHRYPSIYDYWGQGTQVTVSS”: the “polyreactivity (PSR sort gate)” value is listed as “high polyreactivity”.

“QVQLVESGGGLVQAGGSLRLSCAASGRTLTAYAMGWYRQAPGKERELVAAISVTGDNTYYADSVKGRFTISRDNAKNTVYLQMNSLKPEDTAVYYCDARKQYKYGYWGQGTQVTVSS”: the “polyreactivity (PSR sort gate)” value is given as “low polyreactivity”. To “QVQLVESGGGLVQAGGSLRLSCAASGRTLTGNAMGWYRPAPGKERELVAVISYSGTNTRYADSVKGRFTISRDNAKNTVYLQMNSLKPEDTAVYYCAADWLGISVVRDPFDHWGQGTQVTVSS” belongs “high polyreactivity”.

On to “QVQLVESGGGLVQAGGSLRLSCAASGRTLTGNAMGWYRQAPGKERELVAVISYSGTNTRYADSVKGRFTISRDNAKNTVYLQMNSLKPEDTAVYYCAARRPAPNYSSRYDYWGQGTQVTVSS”, for which the “polyreactivity (PSR sort gate)” value was “high polyreactivity”. For “QVQLVESGGGLVQAGGSLRLSCAASGRTLTIYAMGWYRQAPGKERELVATIRSSGSTNYADSVKGRFTISRDNAKNTVYLQMNSLKPEDTAVYYCAARGNTPRTRRYGYWGQGTQVTVSS” the value was “high polyreactivity”; for “QVQLVESGGGLVQAGGSLRLSCAASGRTLVHYAMGWYRQAPGKERELVAAISIGGDSTYAVSVKGRFTISRDNAKNTVYLQMNSLKPEDTAVYYCAASGWWDFFDPYFKFDYWGQGTQVTVSS”, “low polyreactivity”. For “QVQLVESGGGLVQAGGSLRLSCAASGRTLVWYTMGWYRQAPGKEREFVAVITTGSGSTYYADSVKGRFTISRDNAKNTVYLQMNSLKPEDTAVYYCNAGYGGYSYHYPPYEYWGQGTLVTVSS” the value was “low polyreactivity”. To “QVQLVESGGGLVQAGGSLRLSCAASGRTLVYYAMGWYRQAPGKERELVAAITWRGGRTYYADSVKGRFTISRDNAKNTVYLQMNSLKPEDTAVYYCAKDGGHTGDYWGQGTQVTVSS” belongs “low polyreactivity”. With “QVQLVESGGGLVQAGGSLRLSCAASGRTLYANTMGWYRPAPGKERELVATIPRDGSTNYADSVKGRFTISRDTAKNTVYLQMNSLKPEDTAVYYCNADLWVNLDNDDDYWGQGTQVTVSS”, the “polyreactivity (PSR sort gate)” value is “low polyreactivity”. To “QVQLVESGGGLVQAGGSLRLSCAASGRTLYHYGMGWYRQAPGKERELVAAINFSGGSTNYADSVKGRFTISRDNAKNTVYLQMNSLKPEDTAVYYCNNEGRPDRDYWGQGTQVTVSS” belongs “low polyreactivity”.

In the case of “QVQLVESGGGLVQAGGSLRLSCAASGRTLYLYAMGWYRQAPGKERELVAAIDWRGTSTYYADSVKGRFTISRDNAKNTVYLQMNSLKPEDTAVYYCNAEGRWSSFTQRMDYWGQGTQVTVSS”, the “polyreactivity (PSR sort gate)” value is given as “low polyreactivity”. To “QVQLVESGGGLVQAGGSLRLSCAASGRTLYQYAMGWYRQAPGKERELVAVITSRGGSTNYADSVKGRFTISRDNAKNTVYLQMNSLKPEDTAVYYCAVLYPKYGKRYGYWGQGSQVTVSS” belongs “high polyreactivity”. To “QVQLVESGGGLVQAGGSLRLSCAASGRTLYRYAMGWYRQEPGKERELVAAIRSGGRTNYADSVKGRFTISRDNAKNTVYLQMNSLKPEDTAVYYCAARTLRYPSTYDYWGQGTQVTVSS” belongs “high polyreactivity”. To “QVQLVESGGGLVQAGGSLRLSCAASGRTLYYNPMGWYRQAPGKEREFVAAISYSGGGTYYADSVKGRFTISRDNAKNTVYLQMNSLKPEDTAVYYCNARIRRPYRVTAEYDYWGQGTQVTVSS” belongs “high polyreactivity”; to “QVQLVESGGGLVQAGGSLRLSCAASGRTLYYYAMGWYRQAPGKERELVAAITRSGGSTYYADSVKGRFTISRDNAKNTVYLQMISLKPEDTEVYYFNKYGYKGGLGYDYWGQGTQVTVSS”, “high polyreactivity”. For the sequence “QVQLVESGGGLVQAGGSLRLSCAASGRTNWTYVMGWYRQAPGKERELVAAISRSGSSTYYADSVKGRFTISRDNAKNTVYLQMNSLKPEDTAVYYCNNVDGTTLDDHYMDYWGQGTQVTVSS”, the “polyreactivity (PSR sort gate)” value is recorded as “low polyreactivity”. For “QVQLVESGGGLVQAGGSLRLSCAASGRTQTRYTMGWYRQAPGKERELVATISRSGGNTHYADSLKGRFTISRDNAKNTVYLQMNSLKPEDTEVYYCNAVRYAIYGYDYWGQGTQVTVSS”, the “polyreactivity (PSR sort gate)” value was “high polyreactivity”. Turning to “QVQLVESGGGLVQAGGSLRLSCAASGRTSGFNTMGWYRQAPGKERELVAAISFSGGSTYYADSVKGRFTISRDNAKNTVYLQMNSLKPEDTAVYYCNALFRYLYRSGDYWGQGTQVTVSS”, the “polyreactivity (PSR sort gate)” value was “low polyreactivity”. To “QVQLVESGGGLVQAGGSLRLSCAASGRTSGNNAMGWYRQAPGKERELVAAITRGGRTYYADSVKGRFTISRDNAKNTVYLQLNSLKPEDTAVYYCAARRYFYLFGYYYWGQGTQVTVSS” belongs “high polyreactivity”.

As to “QVQLVESGGGLVQAGGSLRLSCAASGRTSLGNAMGWYRQAPGKERELVAAISGSGGSTYYADSVKGRFTISRDNAKNTVYLQMNSLKPEDTAVYYCNKKLYGYQHYYWYYYWGQGTQVTVSS”, the “polyreactivity (PSR sort gate)” value is on record as “high polyreactivity”. On to “QVQLVESGGGLVQAGGSLRLSCAASGRTSLLYAMGWYRQAPGKERELVATISIGGSTYYADSVKGRFTISRDNAKKTVYLQMKSRKPEDTAVYYCAADVWWFFQPSTLGDFEYWGQGTQVTVSS”, for which the “polyreactivity (PSR sort gate)” value is “low polyreactivity”.

Regarding “QVQLVESGGGLVQAGGSLRLSCAASGRTSLVYAMGWYRQAPGKERELVAAITSSGGTTYYADSVKGRFTISRDNAKNTVYLQMNSLKPEDTAVYYCAADVDVSYWRMEYWGQGTQVTVSS”, the “polyreactivity (PSR sort gate)” value is on record as “high polyreactivity”.

In the case of “QVQLVESGGGLVQAGGSLRLSCAASGRTSLVYAMGWYRQAPGKERQLVAAISRGGTTNYADSVKGRFTISRDNAKNTVYLQMNSLKPEDTAVYYCAARTIYHVRPMYYWGQGTQVTVSS”, the “polyreactivity (PSR sort gate)” value is recorded as “high polyreactivity”. As for “QVQLVESGGGLVQAGGSLRLSCAASGRTSPGYAMGWYRQAPGKEREFVAGISRGGGSTYYADSVKGRFTISRDNAKNTVYLQMNSLKPEDTEVYYCNVRGPGFYWNWGQSHYYGYDYWGQGTQVTVSS”, the “polyreactivity (PSR sort gate)” value was “high polyreactivity”.

As for “QVQLVESGGGLVQAGGSLRLSCAASGRTSQINAMGWYIQAPGKERELVAAITRGGGITYYADSVKGRFTISRDNAKNTVYLQMNSLKPEDTAVYYCATRGSSFVQYRTRYGYWGQGTQVTVSS”, the “polyreactivity (PSR sort gate)” value is “high polyreactivity”.

In the case of “QVQLVESGGGLVQAGGSLRLSCAASGRTSRYYAMGWYRQAPGKERELVAAISSSGGNTYYADSVKGRFTISRDNAKNTVYLQMNSLKPEDTAVYYCNAYYPIRSSPYGYYYWGQGTQVTVSS”, the “polyreactivity (PSR sort gate)” value was “high polyreactivity”. For “QVQLVESGGGLVQAGGSLRLSCAASGRTSSINAMGWYRQAPGKERELVAVITGGGRTSYADSVKGRFTISRDNAKNTVDLQMNSLIPEDTAVYYCNATRSYYGYYYWGQGTQVTVSS” the value was “high polyreactivity”; for “QVQLVESGGGLVQAGGSLRLSCAASGRTSSTYDMGWYRLAPGKERELVADITWYGGSTYYADSVKGRFTISRDNAKNTVYLQMNSLIPEDTAVYYCAAERKDGGYGYGFYWGVVGLDYWGQGTQVTVSS”, “low polyreactivity”.

For “QVQLVESGGGLVQAGGSLRLSCAASGRTSSVYAMGWYRQAPGKESELVAAINRSDGGTYYADSVKGRFTISRDNAKNTVYLQMNSLKPEDTAVYYCARRYYYQYRYDYWGQGTQVTVSS”, the “polyreactivity (PSR sort gate)” value is listed as “high polyreactivity”. For “QVQLVESGGGLVQAGGSLRLSCAASGRTSSYTMGWYRQAPGKERELVAAITRRGVSTYYADSLKGRFTISRDNAKNTVYFQMNSLKAEDTAVYYCAVGPRASFGYGYWGQGTQVTVSS”, the “polyreactivity (PSR sort gate)” value is reported as “high polyreactivity”.

Consider “QVQLVESGGGLVQAGGSLRLSCAASGRTSVPYAMGWYRQAPGKERELVAAITSGGSTYYADSVKGRFTISRDNAKNTVYLQMNSQKPEDTAVYYCAASQPHSAPYTASYGSWGQGTQVTVSS”, for which the “polyreactivity (PSR sort gate)” value is “low polyreactivity”. To “QVQLVESGGGLVQAGGSLRLSCAASGRTSVRYAMGWYRQAPGKERELVAAISWSGGSTYYADSVKGRFTISRDNAKNTVYLQMNSLKPEDTAVYYCAAERGPTNHTSYPWYEYDYWGQGTQVTVSS” belongs “low polyreactivity”. To “QVQLVESGGGLVQAGGSLRLSCAASGRTSVVNAMGWYRQAPGKERELVAAITSGGSTHYADSVKGRFTISRDNAKNTVYLPMNSLKPEDTAVYYCNARDRRRTNLLDYWGQGTQVTVSS” belongs “low polyreactivity”; to “QVQLVESGGGLVQAGGSLRLSCAASGRTSWVYAMGWYRQAPGTERELVASIRKRTVVYADSVKGRFTISRDNAKNTVYLQMNSLKPEDTAVYYCNADTTFYGYRTYRPENYWGQGTQVTVSS”, “high polyreactivity”; to “QVQLVESGGGLVQAGGSLRLSCAASGRTSWYYAMGWYRQAPGKERELVAAITASGGSTYADSVKWRFTISRDNAKNTVYLQMNSLKPEDTAVYYCAAERPYSRVGYYYWGQGTQVTVSS”, “high polyreactivity”.

As for “QVQLVESGGGLVQAGGSLRLSCAASGRTSYRYAMGWYRQAPGKERELVAAISWSGGSTYYADSVKGRFTISRDNAKNTVSLQMNSLKPDDTAVYYCNARQHQVRWWLREFDYWGQGTQVTVSS”, the “polyreactivity (PSR sort gate)” value was “low polyreactivity”. As to “QVQLVESGGGLVQAGGSLRLSCAASGRTSYTNAMGWYRQAPGKERELVAAINYSGGSTYYADSVKGRFTISRDNAKNTVYLQMNSLKPEDTAVYYCAAERYYWYTEMGYWGQGTQVTVSS”, the “polyreactivity (PSR sort gate)” value is recorded as “high polyreactivity”. Consider “QVQLVESGGGLVQAGGSLRLSCAASGRTSYTYTMGWYRQAPGKERELVAAISWNAGSTYYADSVKGRFTISRDNAKNTVSLQMNSLKPEDTAVYYCNRRIFGGQRMYYWGQGTQVTVSS”, for which the “polyreactivity (PSR sort gate)” value is given as “high polyreactivity”. For “QVQLVESGGGLVQAGGSLRLSCAASGRTSYTYVMGWYRQAPGKERELVAAIRLSGGNTYYADPVKGRFTISRDNAKNTVYLQMNSLKPEDTAVYYCAAQYWRHRKAYGYWGQGTQVTVSS”, the “polyreactivity (PSR sort gate)” value is recorded as “high polyreactivity”. To “QVQLVESGGGLVQAGGSLRLSCAASGRTSYVYAMGWYRQAPGKERELVASITGSAGSTYYADSVKGRFTISRDNAKNTVYLQMNSLKPEDTAVYYCAVLRWRSWSSPGYYWGQGTQVTVSS” belongs “high polyreactivity”.

The record behind these values is the nanobody polyreactivity screen of Harvey et al. (2022).
